System: MS2 coat protein
Assay: apparent KD of MS2 coat protein; higher = weaker reporter binding
Conditions: Eterna round: R107
Outline: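 On-chip transcription from Illumina sequencing clusters produced the designed RNA switches. These were titrated with SNAP-549-labelled MS2 coat protein (twofold steps, 0.7 or 1.5 nM to 3 µM) in 100 mM Tris-HCl pH 7.5, 80 mM KCl, 4 mM MgCl2, with or without constant ligand. The apparent KD given is the per-design median of normalised cluster binding-curve fits.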

[1] = input ligand: theophylline 20 uM
[2] = input ligand: theophylline 2 mM
[3] = input ligand: tryptophan 2.4 mM

Sequence	apparent KD of MS2 coat protein (input ligand: arginine 13.2 mM) [µM]	apparent KD of MS2 coat protein [1] [µM]	apparent KD of MS2 coat protein [2] [µM]	apparent KD of MS2 coat protein (input ligand: none) [µM]	apparent KD of MS2 coat protein [3] [µM]
GGGUACAUCGCGGCCGCCACUUAUGUAAAUACAUGAGGAUCACCCAUGUCGAUGGAGACAUCGGAAAGGACCGGGUGAUGUACCG	0.13	0.271	0.262		
GGGUACAUCGCGGCCGCCACUUGUGUAAAUACAUGAGGAUCACCCAUGUCGAUGGAGACAUCGGAGAGGACCGGGUGAUGUACCG	0.0707	0.122	0.0965	0.08	0.0408
GGGUACAUCGCGGCCGCCACUUGUGUAAAUACAUGAGGAUCACCCAUGUCGAUGGAGACAUCGGGAAGGACCGGGUGAUGUACCG	0.218	0.802	1.2	0.342	0.65
GGGUGGUAGGCGGCCGCCACUGAUUUUCAUUCCUAGAUGACAUGAGGAUCACCCAUGUUUAUGGGCAGGACCGGGCCUGCUGUGG [aaaV]	0.0384	0.0641	0.0799		
GGUAGACGGACGGCCGCCACUCACAUGAGGAUCACCCAUGUAUAGUUGGUAAUCUGGGUUCAGGAGAGGACCGGGUCCUUGUCAG [theeternabot_exclusion_MS2_Trp_B_43]	0.0343	0.0232	0.0243	0.0184	0.0233
GGUAUAUAGGCGGCCGCCACUGAUUUUCAUAUAUAUAUAACAUGAGGAUCACCCAUGUAGAUAUACAGGACCGGGCCUAUAUAUU [aaaC]	0.0161	0.0177	0.0164		
GGUUACUCUACGGCCGCCACUGUAAAGUAAAGAUUACUGUACAUGACAUGAGGAUCACCCAUGUACAGGACCGGGUAGUGUAACC [Tryptophan B 15]	0.0322	0.0463	0.0355		
GGUUACUCUACGGCCGCCACUGUAAUGUAAAGAUACCUGUACAUGACAUGAGGAUCACCCAUGUACAGGACCGGGUAGUGUAACC [Tryptophan B 17]	0.144	0.312	0.343		
GGUUAGGUUUUUGAUACCAGCUAUUGGUGUCAUCUGAGGAUCACCCAGGUCUUGUGUUUUAGCCCUUGGCAGCAAAAGUUUAGUC [SSTheo B #28]	0.0726	0.118	0.0941	0.0884	0.108
GGUUGAUGACAUGAGGAUCACCCAUGUAGGCGAGGACCGGUACGGCCGCCACUCGACAUGAGGAUCACCCAUGUCGGCGUCCGUG	0.0143	0.0199	0.018		
GGUUGGUGUAGAGAUAUAUUGAUUACUGAAGGAGCGGGACGAAACCCAGGUAGGUCGCAGAGAUCCACAUGAGGAUCACCCAUGU [!0.M]	0.0316	0.0466	0.0614	0.0461	0.0334
GUACAUGAGGAUCACCCAUGUAUAGUUGAAGGAGCGACCAGAGGGUCAGGUAGGUCGCAGCACAUGGCGUAAACCCGUGUAUGCC [#1 Exclusion - Arginine A Attempt #23 (Inspired by Pi)]	0.0204	0.0279	0.0249	0.021	0.0212
GUAUACAUGAGGAUCACCCAUGUACCAGAAGGAGCGCUGGAAACAGCAGGUAGGUCGCUGGUAGGUCCUCUAUCUAGACGUUCUU [EAA NP+V+V2 #6]	0.0405	0.167	0.157	0.193	0.11
GUAUAUUAUAGAAGGAGCGUCGAAAAUGGGUAAACAUGAGGAUCACCCAUGUAAAGGGAACGACAGGUAGGUCGCUAUAAUAUAC [AstromonsSSArgB#14]	0.154	0.233	0.311	0.218	0.22
GUCCGACAUGAGGAUCACCCAUGUACUGAAGGAGCGGACAAAUGUCCAGGUAGGUCGCAGCUAUAUGGUGUGGACCGAUCCGGAC [Ustius]	0.019	0.0272	0.0236	0.022	0.0224
GUCGUGGUCGGAAGGAGCGACAUGAGGAUCACCCAUGUCUCCCGUUAUGGGAGUUCCUUAGGUCAGGUAGGUCGCCGACUGCGGC [#1 Exclusion - Arginine B Attempt #23 (Inspired by Omei)]	0.0547	0.17	0.276	0.199	0.181
GUCUCAGACCGAGAUACCAGCUGGGUUUCCCACAUGAGGAUCACCCAUGUAUUCAGAUUAAGCCCUUGGCAGCUCAUCUAGGUCC [theeternabot_sameState_MS2_Theo_B_44]	0.0218	0.0206			0.0166
GUCUUGGGAUCGGCCGCCACUACAUGAGGAUCACCCAUGUGGACAAAUAGGGUUGUUAAGCUCGGUAGGACCGGGAUUCGGACAU [Oncetexeza]	0.0221	0.0411	0.0273	0.026	0.111
GUGUUUGUGUGAGAUACCAGUGAGGCCACAUGAGGAUCACCCAUGUCCCUCACUCCGGCCCACCCUUGGCAGCUCUUAUAGUAGU [Exclusion Theophylline B GF 23]	0.00934	0.0133			0.00983
GUUAUAACAAAAGUUGUAACAGUGGGUGAACGAGGACCGGUACGGCCGCCACUCGGACAUGAGGAUCACCCAUGUCCAUGUGAAA [AstrosExyTryA#15]	0.0141	0.0182	0.0216		

Source: the supplement of paper PMC9170038
